Measured values published in PMC10700650, “Enhancing the thermostability and activity of glycosyltransferase UGT76G1 via computational design” (Communications Chemistry, 2023).

Tests used:
[1] = target: 76_4 (designed UGT76G1 variant) (Stevia rebaudiana, UniProt Q6VAB4, L101F/S192K/R297W/V300K/S305P/G348P, form not given); conditions: 1 mM UDPG; 0-300 uM ST; ST to RebA conversion; 2 min time course
purified protein = substrate: C=C1C[C@@]23CC[C@H]4[C@@](C)(CCC[C@@]4(C)C(=O)O[C@@H]4O[C@H](CO)[C@@H](O)[C@H](O)[C@H]4O)[C@@H]2CC[C@]1(O[C@@H]1O[C@H](CO)[C@@H](O)[C@H](O)[C@H]1O[C@@H]1O[C@H](CO)[C@@H](O)[C@H](O)[C@H]1O)C3; test: purified protein; conditions: 1 mM UDPG; 0-300 uM ST; ST to RebA conversion; 2 min time course

Sequence of 76_4 (designed UGT76G1 variant) (Q6VAB4 12-458 L101F/S192K/R297W/V300K/S305P/G348P, form open): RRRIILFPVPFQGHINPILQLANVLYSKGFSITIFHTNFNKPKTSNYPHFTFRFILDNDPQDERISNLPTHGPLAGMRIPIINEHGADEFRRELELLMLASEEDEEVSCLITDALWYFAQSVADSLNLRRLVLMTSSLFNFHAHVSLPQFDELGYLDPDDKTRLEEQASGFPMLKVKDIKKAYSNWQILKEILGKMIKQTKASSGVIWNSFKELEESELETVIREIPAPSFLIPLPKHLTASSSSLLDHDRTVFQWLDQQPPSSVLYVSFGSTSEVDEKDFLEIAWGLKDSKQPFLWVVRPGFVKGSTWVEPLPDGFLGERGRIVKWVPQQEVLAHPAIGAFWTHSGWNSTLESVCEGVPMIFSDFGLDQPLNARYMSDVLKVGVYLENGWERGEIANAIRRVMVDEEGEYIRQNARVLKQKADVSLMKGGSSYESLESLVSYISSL

| Km [1] [µM] | Molecule | Km (purified protein) [µM] | kcat (purified protein) [s⁻¹] |
| --- | --- | --- | --- |
| 34.5 ± 3 | C=C1C[C@@]23CC[C@H]4[C@@](C)(CCC[C@@]4(C)C(=O)O[C@@H]4O[C@H](CO)[C@@H](O)[C@H](O)[C@H]4O)[C@@H]2CC[C@]1(O[C@@H]1O[C@H](CO)[C@@H](O)[C@H](O)[C@H]1O[C@@H]1O[C@H](CO)[C@@H](O)[C@H](O)[C@H]1O)C3 [ST, stevioside] |  |  |
|  | UGT76G1 (WT) (Stevia rebaudiana) (protein) MENKTETTVRRRRRIILFPVPFQGHINPILQLANVLYSKGFSITIFHTNFNKPKTSNYPHFTFRFILDNDPQDERISNLPTHGPLAGMRIPIINEHGADELRRELELLMLASEEDEEVSCLITDALWYFAQSVADSLNLRRLVLMTSSLFNFHAHVSLPQFDELGYLDPDDKTRLEEQASGFPMLKVKDIKSAYSNWQILKEILGKMIKQTKASSGVIWNSFKELEESELETVIREIPAPSFLIPLPKHLTASSSSLLDHDRTVFQWLDQQPPSSVLYVSFGSTSEVDEKDFLEIARGLVDSKQSFLWVVRPGFVKGSTWVEPLPDGFLGERGRIVKWVPQQEVLAHGAIGAFWTHSGWNSTLESVCEGVPMIFSDFGLDQPLNARYMSDVLKVGVYLENGWERGEIANAIRRVMVDEEGEYIRQNARVLKQKADVSLMKGGSSYESLESLVSYISSL | 92.0 ± 5.3 | 0.288 ± 0.0267 |
